doi:10.1101/2021.09.03.458882 (bioRxiv, 2021)

Molecular target: the molecule itself
Experiment: FRET or BRET

B1: Glucose oxidase (from Aspergillus niger) (enzyme, UniProt P13006 17-605, looked up)
chain: LPHYIRSNGIEASLLTDPKDVSGRTVDYIIAGGGLTGLTTAARLTENPNISVLVIESGSYESDRGPIIEDLNAYGDIFGSSVDHAYETVELATNNQTALIRSGNGLGGSTLVNGGTWTRPHKAQVDSWETVFGNEGWNWDNVAAYSLQAERARAPNAKQIAAGHYFNASCHGVNGTVHAGPRDTGDDYSPIVKALMSAVEDRGVPTKKDFGCGDPHGVSMFPNTLHEDQVRSDAAREWLLPNYQRPNLQVLTGQYVGKVLLSQNGTTPRAVGVEFGTHKGNTHNVYAKHEVLLAAGSAVSPTILEYSGIGMKSILEPLGIDTVVDLPVGLNLQDQTTATVRSRITSAGAGQGQAAWFATFNETFGDYSEKAHELLNTKLEQWAEEAVARGGFHNTTALLIQYENYRDWIVNHNVAYSELFLDTAGVASFDVWDLLPFTRGYVHILDKDPYLHHFAYDPQYFLNELDLLGQAAATQLARNISNSGAMQTYFAGETIPGDNLAYDADLSAWTEYIPYHFRPNYHGVGTCSMMPKEMGGVVDNAARVYGVQGLRVIDGSIPPTQMSSHVMTVFYAMALKISDAILEDYASMQ
modifications: amine reactive dye Alexa Fluor 488 on one population and Alexa Fluor 532 on the other
B1: binds.
